Test results reported in patent US20190060405A1.

Biological target: rat CSF1-R (CD115) expressed on pDCs (rat) (UniProt Q00495)
Assay: cell-based or functional assay

Sequence of UniProt Q00495 (Q00495 20-978): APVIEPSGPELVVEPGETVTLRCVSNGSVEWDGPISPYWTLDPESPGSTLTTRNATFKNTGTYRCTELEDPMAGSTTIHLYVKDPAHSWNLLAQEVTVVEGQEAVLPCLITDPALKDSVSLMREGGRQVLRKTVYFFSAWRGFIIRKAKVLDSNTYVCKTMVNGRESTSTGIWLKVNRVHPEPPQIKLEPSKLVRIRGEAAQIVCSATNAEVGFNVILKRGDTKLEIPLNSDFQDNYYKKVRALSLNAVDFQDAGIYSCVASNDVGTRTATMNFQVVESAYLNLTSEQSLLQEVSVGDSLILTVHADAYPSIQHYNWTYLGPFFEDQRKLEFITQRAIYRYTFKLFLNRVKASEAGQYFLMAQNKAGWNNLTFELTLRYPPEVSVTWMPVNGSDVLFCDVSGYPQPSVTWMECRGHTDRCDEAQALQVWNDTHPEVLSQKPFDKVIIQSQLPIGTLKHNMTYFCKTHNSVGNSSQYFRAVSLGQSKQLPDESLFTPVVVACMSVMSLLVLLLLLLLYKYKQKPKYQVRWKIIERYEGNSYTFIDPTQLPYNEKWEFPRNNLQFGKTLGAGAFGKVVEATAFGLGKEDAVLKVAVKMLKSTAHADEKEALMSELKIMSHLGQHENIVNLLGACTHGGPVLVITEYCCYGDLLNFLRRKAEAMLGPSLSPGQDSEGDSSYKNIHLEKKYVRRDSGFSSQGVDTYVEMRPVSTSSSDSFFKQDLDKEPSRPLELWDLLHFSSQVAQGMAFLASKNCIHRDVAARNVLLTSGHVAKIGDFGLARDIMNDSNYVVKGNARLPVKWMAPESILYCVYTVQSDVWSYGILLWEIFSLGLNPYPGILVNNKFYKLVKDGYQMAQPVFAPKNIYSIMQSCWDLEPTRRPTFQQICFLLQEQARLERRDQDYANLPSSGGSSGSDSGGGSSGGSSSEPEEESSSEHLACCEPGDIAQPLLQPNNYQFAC

In the case of “Rat M-CSF protein (ab56288, ABCAM) (from UniProt Q8JZQ0 33-187) (ligand)”, the suppression of CD4+CD25- T cells proliferation (MLR, CFSE) is reported as 93.5%.
